Reference: US20230314420A1 (Genentech, published 2023)

B1: Pertuzumab coat reagent: recombinant HER2 extracellular domains I, II, III fused to a murine Fc; domain IV (containing the trastuzumab epitope) is depleted (Fc fusion)
chain: KYALADASLKMADPNRFRGKDLPVLDQLLESTQVCTGTDMKLRLPASPETHLDMLRHLYQGCQVVQGNLELTYLPTNASLSFLQDIQEVQGYVLIAHNQVRQVPLQRLRIVRGTQLFEDNYALAVLDNGDPLNNTTPVTGASPGGLRELQLRSLTEILKGGVLIQRNPQLCYQDTILWKDIFHKNNQLALTLIDTNRSRACHPCSPMCKGSRCWGESSEDCQSLTRTVCAGGCARCKGPLPTDCCHEQCAAGCTGPKHSDCLACLHFNHSGICELHCPALVTYNTDTFESMPNPEGRYTFGASCVTACPYNYLSTDVGSCTLVCPLHNQEVTAEDGTQRCEKCSKPCARVCYGLGMEHLREVRAVTSANIQEFAGCKKIFGSLAFLPESFDGDPASNTAPLQPEQLQVFETLEEITGYLYISAWPDSLPDLSVFQNLQVIRGRILHNGAYSLTLQGLGISWLGLRSLRELGSGLALIHHNTHLCFVHTVPWDQLFRNPHQALLHTANRPEDECVRRAQVTDKKIEPRGPTIKPCPPCKCPAPNLLGGPSVFIFPPKIKDVLMISLSPIVTCVVVDVSEDDPDVQISWFVNNVEVHTAQTQTHREDYNSTLRVVSALPIQHQDWMSGKEFKCKVNNKDLPAPIERTISKPKGSVRAPQVYVLPPPEEEMTKKQVTLTCMVTDFMPEDIYVEWTNNGKTELNYKNTEPVLDSDGSYFMYSKLRVEKKNWVERNSYSCSVVHEGLHNHHTTKSFSRTPGK
notes: also called P-HER2 variant; capture reagent of the pertuzumab ELISA
B2: Trastuzumab coat reagent: recombinant HER2 extracellular domains I, III, IV fused to a murine Fc; domain II is replaced by structurally related domain II of … (Fc fusion)
chain: KYALADASLKMADPNRFRGKDLPVLDQLLEAASTQVCTGTDMKLRLPASPETHLDMLRHLYQGCQVVQGNLELTYLPTNASLSFLQDIQEVQGYVLIAHNQVRQVPLQRLRIVRGTQLFEDNYALAVLDNGDPLNNTTPVTGASPGGLRELQLRSLTEILKGGVLIQRNPQLCYQDTILWKDIFHKNNQLALTLIDTNRSRACHPCSPMCKGSRCWGESSEDCQKLTKIICAQQCSGRCRGKSPSDCCHNQCAAGCTGPRESDCLVCRKFRDEATCKDTCPPLMLYNPTTYQMDVNPEGKYSFGATCVKKCPRNYVVTDHGSCVRACGADSYEMEEDGVRKCKKCEGPCRKVCYGLGMEHLREVRAVTSANIQEFAGCKKIFGSLAFLPESFDGDPASNTAPLQPEQLQVFETLEEITGYLYISAWPDSLPDLSVFQNLQVIRGRILHNGAYSLTLQGLGISWLGLRSLRELGSGLALIHHNTHLCFVHTVPWDQLFRNPHQALLHTANRPEDECVGEGLACHQLCARGHCWGPGPTQCVNCSQFLRGQECVEECRVLQGLPREYVNARHCLPCHPECQPQNGSVTCFGPEADQCVACAHYKDPPFCVARCPSGVKPDLSYMPIWKFPDEEGACQPCPINCTHSCVDLDDKGCPAEQRRAQVTDKKIEPRGPTIKPCPPCKCPAPNLLGGPSVFIFPPKIKDVLMISLSPIVTCVVVDVSEDDPDVQISWFVNNVEVHTAQTQTHREDYNSTLRVVSALPIQHQDWMSGKEFKCKVNNKDLPAPIERTISKPKGSVRAPQVYVLPPPEEEMTKKQVTLTCMVTDFMPEDIYVEWTNNGKTELNYKNTEPVLDSDGSYFMYSKLRVEKKNWVERNSYSCSVVHEGLHNHHTTKSFSRTPGK
notes: also called T-HER2 variant; capture reagent of the trastuzumab ELISA
B3: Vorhyaluronidase Alfa (recombinant human hyaluronidase rHuPH20) (enzyme, UniProt P38567 36-482, looked up)
chain: LNFRAPPVIPNVPFLWAWNAPSEFCLGKFDEPLDMSLFSFIGSPRINATGQGVTIFYVDRLGYYPYIDSITGVTVNGGIPQKISLQDHLDKAKKDITFYMPVDNLGMAVIDWEEWRPTWARNWKPKDVYKNRSIELVQQQNVQLSLTEATEKAKQEFEKAGKDFLVETIKLGKLLRPNHLWGYYLFPDCYNHHYKKPGYNGSCFNVEIKRNDDLSWLWNESTALYPSIYLNTQQSPVAATLYVRNRVREAIRVSKIPDAKSPLPVFAYTRIVFTDQVLKFLSQDELVYTFGETVALGASGIVIWGTLSIMRSMKSCLLLDNYMETILNPYIINVTLAAKMCSQVLCQEQGVCIRKNWNSSDYLHLNPDNFAIQLEKGGKFTVRGKPTLEDLEQFSEKFYCSCYSTLSCKEKADVKDTDAVDVCIADGVCIDAFLKPPMETEEPQIFY
notes: Also the only protein in the two rHuPH20-containing formulation buffers tested as samples; also called rHuPH20-Containing FDC LD Formulation Buffer; rHuPH20-Containing FDC MD Formulation Buffer
B4: PEG-Filgrastim (other, UniProt P09919-2 31-204, looked up)
chain: TPLGPASSLPQSFLLKCLEQVRKIQGDGAALQEKLCATYKLCHPEELVLLGHSLGIPWAPLSSCPSQALQLAGCLSQLHSGLFLYQGLLQALEGISPELGPTLDTLQLDVADFATTIWQQMEELGMAPALQPTQGAMPAFASAFQRRAGGVLVASHLQSFLEVSYRVLRHLAQP
modifications: pegylated; site not stated
notes: Specificity control
B5: Filgrastim (other, UniProt P09919-2 31-204, looked up)
chain: TPLGPASSLPQSFLLKCLEQVRKIQGDGAALQEKLCATYKLCHPEELVLLGHSLGIPWAPLSSCPSQALQLAGCLSQLHSGLFLYQGLLQALEGISPELGPTLDTLQLDVADFATTIWQQMEELGMAPALQPTQGAMPAFASAFQRRAGGVLVASHLQSFLEVSYRVLRHLAQP
notes: Specificity control

Tests used:
PEG-Filgrastim [1] = target: B4; test: pertuzumab ELISA specificity test
Filgrastim [2] = target: B5; test: pertuzumab ELISA specificity test
[3] = target: B3; test: pertuzumab ELISA specificity test; sample Vorhyaluronidase Alfa
PEG-Filgrastim [4] = target: B4; test: trastuzumab ELISA specificity test
Filgrastim [5] = target: B5; test: trastuzumab ELISA specificity test
[6] = target: B3; test: trastuzumab ELISA specificity test; sample rHuPH20-Containing FDC LD Formulation Buffer
[7] = target: B1; test: pertuzumab ELISA specificity test, highest assay concentration, duplicate, OD(405 nm)-OD(490 nm)
[8] = target: B2; test: trastuzumab ELISA specificity test, highest assay concentration, duplicate, OD(405 nm)-OD(490 nm)
[9] = target: B2; test: trastuzumab ELISA specificity test; sample Pertuzumab IV

B1
binding result (PEG-Filgrastim [1]): no binding
binding result (Filgrastim [2]): no binding
binding result [3]: no binding

B2
binding result (PEG-Filgrastim [4]): no binding
binding result (Filgrastim [5]): no binding
binding result [6]: no binding

B3
OD Mean of Replicates [7]: 0.07 OD
OD Mean of Replicates [8]: 0.03 OD

B4
OD Mean of Replicates [7]: 0.07 OD
OD Mean of Replicates [8]: 0.03 OD

B5
OD Mean of Replicates [7]: 0.08 OD
OD Mean of Replicates [8]: 0.04 OD

B6: Pertuzumab (antibody, human IgG1, kappa, V domains shown)
VH: EVQLVESGGGLVQPGGSLRLSCAASGFTFTDYTMDWVRQAPGKGLEWVADVNPNSGGSIYNQRFKGRFTLSVDRSKNTLYLQMNSLRAEDTAVYYCARNLGPSFYFDYWGQGTLVTVSS
VL: DIQMTQSPSSLSASVGDRVTITCKASQDVSIGVAWYQQKPGKAPKLLIYSASYRYTGVPSRFSGSGSGTDFTLTISSLQPEDFATYYCQQYYIYPYTFGQGTKVEIKR
notes: also called rhuMAb 2C4; Pertuzumab IV
binding result [9]: no binding
